B1: NRP1 on rat C6 glioma cells (receptor, rat (Rat C6 glioma cells), UniProt Q9QWJ9 22-922, looked up)
chain: FRSDKCGGTIKIENPGYLTSPGYPHSYHPSEKCEWLIQAPEPYQRIMINFNPHFDLEDRDCKYDYVEVIDGENEGGRLWGKFCGKIAPSPVVSSGPFLFIKFVSDYETHGAGFSIRYEIFKRGPECSQNYTAPTGVIKSPGFPEKYPNSLECTYIIFAPKMSEIILEFESFDLEQDSNPPGGVFCRYDRLEIWDGFPEVGPHIGRYCGQKTPGRIRSSSGILSMVFYTDSAIAKEGFSANYSVLQSSISEDFKCMEALGMESGEIHSDQITASSQYGTNWSVERSRLNYPENGWTPGEDSYREWIQVDLGLLRFVTAVGTQGAISKETKKKYYVKTYRVDISSNGEDWITLKEGNKAIIFQGNTNPTDVVFGVFPKPLITRFVRIKPASWETGISMRFEVYGCKITDYPCSGMLGMVSGLISDSQITASNQGDRNWMPENIRLVTSRTGWALPPSPHPYINEWLQVDLGDEKIVRGVIIQGGKHRENKVFMRKFKIAYSNNGSDWKMIMDDSKRKAKSFEGNNNYDTPELRAFTPLSTRFIRIYPERATHSGLGLRMELLGCEVEVPTAGPTTPNGNPVDECDDDQANCHSGTGDDFQLTGGTTVLATEKPTIIDSTIQSEFPTYGFNCEFGWGSHKTFCHWEHDSHAQLRWRVLTSKTGPIQDHTGDGNFIYSQADENQKGKVARLVSPVVYSQSSAHCMTFWYHMSGSHVGTLRVKLHYQKPEEYDQLVWMVVGHQGDHWKEGRVLLHKSLKLYQVIFEGEIGKGNLGGIAVDDISINNHIPQEDCAKPTDLDKKNTEIKIDETGSTPGYEEGKGDKNISRKPGNVLKTLDPILITIIAMSALGVLLGAVCGVVLYCACWHNGMSERNLSALENYNFELVDGVKLKKDKLNPQSNYSEA
notes: whole, on cells; It is not tied expressly to the C6 cells; also called neuropilin-1; receptor NRP1 on C6 cells

Tests used:
[1] = molecular target: NRP1 expressed on COS cells (COS-NRP1); assay: cell-based or functional assay
[2] = molecular target: the molecule itself; assay: sucrose density gradient sedimentation of C6 cell lysates, anti-NRP1 western blot

Molecule	collapsed COS-1 cells expressing NRP1 and Plexin-A1 [1] [%]	binding result [2]
Sema3A (ligand)	> 50	–
B1	–	binds

Source: patent US20150307589A1 (INSERM INSTITUT NATIONAL DE LA SANTE ET DE LA RECHERCHE …, published 2015)
